Test [1] deals with T1, Fc-CLEC1 labelled with Alexa Fluor 488 (human, Alexa Fluor 488 label (sites not given)).
T1 construct: also called Fc-CLEC1-A488; Alexa488-Fc-Clec-1
T1 chain: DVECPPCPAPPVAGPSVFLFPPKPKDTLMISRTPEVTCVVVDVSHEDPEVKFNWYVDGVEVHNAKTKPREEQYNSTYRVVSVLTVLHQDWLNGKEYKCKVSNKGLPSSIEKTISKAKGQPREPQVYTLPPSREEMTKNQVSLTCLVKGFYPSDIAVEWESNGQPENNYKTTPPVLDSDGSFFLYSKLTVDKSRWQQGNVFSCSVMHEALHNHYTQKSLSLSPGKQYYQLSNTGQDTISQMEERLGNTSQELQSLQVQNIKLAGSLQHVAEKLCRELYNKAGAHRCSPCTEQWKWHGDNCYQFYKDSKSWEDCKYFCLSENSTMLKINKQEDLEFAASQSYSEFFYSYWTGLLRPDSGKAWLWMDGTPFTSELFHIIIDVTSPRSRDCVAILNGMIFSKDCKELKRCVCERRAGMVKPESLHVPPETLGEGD
Description: FACS competition: blocks Fc-CLEC1-A488 (10 nM) binding to CLEC-1 ligand on UV-treated PBMC; read-out Mean. The protocol:
(§1) Methods. To measure competition on permeabilised Raji (CytoFix/cytoperm kit, BD Biosciences) which expressed CLEC1 ligand, Fc-CLEC1-labelled A488 which bound specifically to permeabilised Raji was used. To measure competition, Fc-CLEC1 labelled A488 at 10 nM or 20 nM was mixed with mouse anti-hCLEC1 at different concentrations for 15 min at RT then added on these cells for 30 min at 4° C. […] To measure competition on PMBC, we used human PBMC pre-treated by UV for 18 h to obtain apoptotic PBMC, which expressed CLEC1 ligand. Fc-CLEC1-labelled A488 bound specifically apoptotic UV-treated PBMC. To measure competition, Fc-CLEC1 labelled A488 at 10 nM was mixed with mouse anti-hCLEC1 at different concentrations for 15 min at RT then added on these cells for 30 min at 4° C.

Test [2] has as its target T1, Fc-CLEC1 labelled with Alexa Fluor 488. Description: FACS competition: blocks Fc-CLEC1-A488 (10 nM) binding to CLEC-1 ligand on permeabilised Raji cells; read-out % + cells. The protocol:
as §1

Test [3] deals with T2, recombinant human CLEC-1 protein with His Tag (#1704-CL R&D Systems) (human, UniProt Q8NC01 74-280).
T2 construct: Bought protein; also called His-CLEC1; His Clec-1; not shown: His tag
T2 sequence: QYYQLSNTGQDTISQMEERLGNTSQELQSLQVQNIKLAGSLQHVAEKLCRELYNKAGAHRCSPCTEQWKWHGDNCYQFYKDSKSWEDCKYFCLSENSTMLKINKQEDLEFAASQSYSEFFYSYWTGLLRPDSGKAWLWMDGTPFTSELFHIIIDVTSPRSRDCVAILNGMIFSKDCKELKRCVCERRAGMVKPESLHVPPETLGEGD
Description: ELISA on immobilised human His-CLEC1 (column hm His Clec); given as ED50. The protocol:
(§2) Method: The binding activity of the anti-hCLEC1 antibodies was assessed by ELISA (Enzyme-linked immunosorbent assay). […] A second ELISA assays was performed, like above, with immobilization of CLEC1-Fc (OSE Immunotherapeutics) at 2 μg/ml. A third ELISA assays was performed to see the cross-reactivity with mouse CLEC1. Like above, ELISA was made with immobilization of mouse Fc-CLEC1 (OSE Immunotherapeutics) at 2 μg/ml in carbonate buffer instead of His-Clec. Purified antibodies were added at different concentrations to measure binding. […] Control antibody is a commercial anti-CLEC-1A antibody.
For orientation: An ELISA detects its analyte on a solid surface through an enzyme-linked reagent.

In test [4] the target is T1, Fc-CLEC1 labelled with Alexa Fluor 488. Put plainly: FACS competition: blocks Fc-CLEC1-A488 (20 nM) binding to CLEC-1 ligand on permeabilised Raji cells; read-out % + cells. How it is done:
as §1

Test [5] addresses T2, recombinant human CLEC-1 protein with …. Description: BLI (Blitz), CLEC1-His on Ni-NTA biosensor, antibody at 20 ug/mL; murine clone, FIG. 16. How it is done: (§3) Analysis was performed with a BLItz System (Fortébio, #C22-2 No 61010-1, Molecular Devices, San José, USA).
(§4) The affinity of the anti-hCLEC1 antibodies, was measured with Blitz system (Forté Bio, C22-2 No 61010-1).

The target in test [6] is T1, Fc-CLEC1 labelled with Alexa Fluor 488. Put plainly: FACS competition: blocks Fc-CLEC1-A488 (10 nM) binding to CLEC-1 ligand on permeabilised Raji cells; read-out Mean. How it is done:
as §1

Test [7] has the same target. Description: FACS competition: blocks Fc-CLEC1-A488 (10 nM) binding to CLEC-1 ligand on UV-treated PBMC; read-out % + cells. The protocol:
as §1

Test [8] has the same target. Description: FACS competition: blocks Fc-CLEC1-A488 (20 nM) binding to CLEC-1 ligand on permeabilised Raji cells; read-out Mean. The protocol:
as §1

Test [9] addresses T3, human CLEC-1A expressed on the cell membrane (human, UniProt Q8NC01 1-280).
T3 construct: Endogenous on human U266 myeloma cells, on monocyte-derived TGFb-DC and macrophages; on CHO cells after transduction with a Clec-1 expressing lentivirus; also called U266 CLEC1; CLEC-1A on U266 cells
T3 sequence: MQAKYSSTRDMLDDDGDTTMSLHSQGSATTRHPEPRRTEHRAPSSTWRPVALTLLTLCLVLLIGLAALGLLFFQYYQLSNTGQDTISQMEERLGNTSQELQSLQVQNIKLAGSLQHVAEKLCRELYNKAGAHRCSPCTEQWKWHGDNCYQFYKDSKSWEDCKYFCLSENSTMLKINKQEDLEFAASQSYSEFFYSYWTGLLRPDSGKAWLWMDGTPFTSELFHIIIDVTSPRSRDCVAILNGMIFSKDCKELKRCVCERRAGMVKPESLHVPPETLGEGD
Put plainly: flow cytometry on U266 cells; printed as ED50, read-out % + cells. In general terms: Flow cytometry measures light scatter and fluorescence of single cells or particles in a stream.

The target of test [10] is T3, human CLEC-1A expressed on the cell …. Put plainly: flow cytometry on U266 cells; printed as ED50, read-out Mean.
The target in test [11] is T2, recombinant human CLEC-1 protein with …. Description: Blitz biolayer interferometry, His-CLEC1 on Ni-NTA biosensor, antibody at 20 ug/mL. How it is done: as §3, §4
(BLI is a label-free optical method that tracks binding on a fibre tip over time.)

In test [12] the target is T3, human CLEC-1A expressed on the cell …. Description: flow cytometry on U266 cells, PE anti-human IgG; % positive cells. The protocol:
(§5) Method: To measure binding of anti-CLEC1 on human U266 cell lines (pre-blocked with Fcblock to blocking FcR), antibodies at different concentrations were incubated for 30 min at 4° C., and washed before stained 30 min at 4° C. with PE-labelled anti-human IgG (Biolegend; reference 409304). Samples were analyzed on Cytoflex cytofluorometer (Beckman Coulter). The MFI of anti-CLEC1 was compared between all anti-CLEC1 antibodies and percentage of stained cells was analysed in all conditions.

Test [13] has the same target. Put plainly: flow cytometry on CHO-Clec-1 cells, revealed with anti-hFc-PE; median fluorescence. The protocol: (§6) To measure binding of anti-clec on CHO-Clec-1 cells, human Fc Receptor Binding Inhibitor diluted at 1/200 (BD pharmingen; USA; reference 564220) was first added for 30 min at room-temperature to block human Fc receptors on CHO-Clec-1 cells to reduce background. Then, antibodies were incubated for 30 min at 4° C., and washed before stained 15 min at 4° C. with PE-labelled anti-human IgG Fc (Biolegend; USA; reference 409303). Samples were analyzed on citoflex (Beckman coulter)

For test [14] the target is unchanged. Description: flow cytometry on CHO-Clec-1 cells (from FIGURE 21). How it is done:
as §6

For test [15] the target is unchanged. Put plainly: flow cytometry on U266 cells. How it is done:
as §5

The target is the same in test [16]. Put plainly: flow cytometry on U266 cells, PE anti-human IgG; median fluorescence. The protocol:
as §5

Test [17] shares this target. Description: flow cytometry on CHO-Clec-1 cells, revealed with anti-hFc-PE; % positive cells. The protocol: as §6
For test [18], the target named is T1, Fc-CLEC1 labelled with Alexa Fluor 488. Description: FACS competition: blocks Fc-CLEC1-A488 (10 nM) binding to CLEC-1 ligand on UV-treated PBMC. How it is done: Competition were also measured on UV pre-treated pro-apoptotic human PBMCs, which can also express the ligand after a treatment under UV radiation for 18 hours. After UV treatment, cells were first washed in cold-PSE and then blocked during 30 min at room temperature with human Fc-block 50-fold diluted in PSE, and then replaced on ice. Purified anti-Clec antibodies at different concentrations were pre-incubated with Alexa488-Fc-Clec-1 in PSE at different concentrations for 15 min at room temperature. Pre-incubated mixes were then incubated on Fc-blocked/SAB (#34005-100, Invitrogen, Illkirch, France) pro-apoptotic PBMCs for 30 min on ice. Binding on cells were then fixed by PFA 2% in cold PBS for 10 min on ice and analyzed on CytoFlex cytofluorometer (Beckman Coulter France, Villepinte).
as §1

Test [19] has the same target. Put plainly: FACS competition: blocks Fc-CLEC1-A488 (10 nM) binding to CLEC-1 ligand on permeabilised Raji cells; IC50 median. How it is done:
To measure competition, purified anti-Clec antibodies at different concentrations were pre-incubated in Perm Wash Buffer with Alexa488-Fc-Clec-1 for 15 min at room temperature. Pre-incubated mixes were then incubated on permeabilized and Fc-blocked Raji cells for 30 min on ice. Binding on cells were then fixed by PFA 2% in cold PBS for 10 min on ice and analyzed on CytoFlex cytofluorometer (Beckman Coulter France, Villepinte).
as §1

For test [20], the target named is T2, recombinant human CLEC-1 protein with …. Description: Blitz biolayer interferometry, His-CLEC1 on Ni-NTA biosensor, antibody at 20 ug/mL. The source holds these as a separate data set.
The target is the same in test [21]. Description: ELISA on immobilised His-CLEC1 (from FIGURE 12). The protocol:
as §2

Read-outs that look alike come from different tables or passages of the source.

B1: murine anti-hCLEC1 antibody 11H11-G11 (antibody, V domains shown)
VH: QIHLVQSGPELKKPGETVKISCKASGYTFTNFGMNWVKQAPGKGLKWMGWINTNTGEPTYADDFKGRFAFSLETSASTAYLQINNLKNEDTATYFCARGAPAWFTYWGQGTLVTVSA
VL: DIQMTQSPASLSASVGETVTITCRATENIYSYLAWYQQKQGKSPQFLVYNAKTLAEGMPSRFSGSGSGTQFSLKINILQPEDFGTYYCQHHFGTPLTFGAGTKLELK
notes: Mouse hybridoma antibody
The IC50 is the midpoint of a concentration-inhibition curve. The EC50 is the concentration giving half of the maximal effect. In general, Kd refers to a measure of binding affinity in units of concentration. As a reminder, the koff is the rate constant with which the complex falls apart. Usually kon stands for the second-order rate constant of association. B1: the IC50 in test [1] turned out to be 2.7 µg/mL; in [2], 8 µg/mL; in test [4] it was 0.7 µg/mL; in test [6], 1.5 µg/mL; in test [7], 0.36 µg/mL; in [8], 0.72 µg/mL. Besides, the 50% effective concentration (EC50) turned out to be 0.00748 µg/mL in [3], 0.0077 µg/mL in [9] and 0.033 µg/mL in test [10]. In addition, the Kd in [5] was around 1 nM; in test [11], 2.91 nM. Also, in test [11], the dissociation rate constant (koff) was 0.000787 s⁻¹. Besides, in [11], the on-rate (kon) was determined as 270000 M⁻¹ s⁻¹.

B2: chimeric anti-CLEC-1A antibody 6C5 (antibody, human IgG4 S228P, kappa, V domains shown)
VH: QVQLQQSGPELVKPGASVKMSCKASGYTFTDYVISWVKQKTGQGLEWIGEIYPGSGNTYYNEKFKGKATLTADKSSSTAYIHLSSLTSEDSAVYFCAGGGSSHFDYWGQGTTLTVSS
VL: not shown
notes: also called 6C5chim; 6C5-VHwt-FcG4m / 6C5-VLwt-CLhk
For orientation: EC50 (read off the curve) means the midpoint of the concentration-response curve. High values mean lower potency in that assay, low ones higher potency in that assay. As to B2, the “EC50 (read off the curve)” value is around 0.2 µg/mL in test [12], around 0.1 µg/mL in test [13], around 0.3 µg/mL in test [16] and around 0.1 µg/mL in test [17]. Also, the concentration giving a half-maximal response (EC50) amounted to 0.123 µg/mL in test [14], 0.258 µg/mL in [15] and 0.326 µg/mL in test [21]. Moreover, the figures for the half-inhibitory concentration (IC50) in test [18] and in test [19] were 0.626 µg/mL and 7.71 nM, respectively. Further, in test [20], the equilibrium dissociation constant (Kd) came out at 40.3 nM. Further, the koff in [20] is 0.00179 s⁻¹. Further, the kon in test [20] was found to be 44500 M⁻¹ s⁻¹.

Values taken from US20230331852A1 (OSE IMMUNOTHERAPEUTICS, published 2023).
